Laboratory results published in patent US9933424 (SEOUL NATIONAL UNIVERSITY HOSPITAL, dated 2018).

Assays:
[1] = target: T1, adenylyl cyclase-associated protein 1 (CAP1), human, of THP-1 cells (human, UniProt Q01518 2-475); test: western blot of cell lysates probed with mFc-human resistin as primary antibody, anti-mFc-HRP detection
T1 construct: Endogenous full-length protein in THP-1 lysates or on THP-1 cells; also called human resistin receptor; 55 kDa protein

[2] = target: T1, adenylyl cyclase-associated protein 1 …; test: conclusion of Example 4 (western blot, immunofluorescence, flow cytometry on THP-1 cells)

T1 sequence (Q01518 2-475 limits assumed): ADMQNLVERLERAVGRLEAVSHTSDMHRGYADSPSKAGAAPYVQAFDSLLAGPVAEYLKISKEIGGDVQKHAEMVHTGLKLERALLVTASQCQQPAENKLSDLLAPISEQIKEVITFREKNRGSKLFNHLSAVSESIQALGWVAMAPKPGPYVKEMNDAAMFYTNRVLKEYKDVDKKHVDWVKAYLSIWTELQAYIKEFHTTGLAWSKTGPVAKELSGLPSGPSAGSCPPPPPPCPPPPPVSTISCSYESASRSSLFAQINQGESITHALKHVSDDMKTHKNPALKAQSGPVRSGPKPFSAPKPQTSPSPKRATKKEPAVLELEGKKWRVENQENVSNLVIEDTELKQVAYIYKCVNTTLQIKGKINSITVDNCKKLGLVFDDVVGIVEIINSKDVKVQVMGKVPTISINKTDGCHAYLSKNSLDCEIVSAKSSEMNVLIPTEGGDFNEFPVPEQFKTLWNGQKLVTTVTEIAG

Row | binding result [1] | binding result [2] | Binder
1 | binds |  | mFc-human resistin fusion protein (mouse Fc region of immunoglobulin fused to the N-terminus of human resistin) (Fc fusion, UniProt Q9HD89 19-108, looked up, Expressed in HEK293-F cells from pcDNA3.1 and purified on mFc-specific beads; also called mFc-human resistin protein; mFc human resistin recombinant protein; not shown: mouse immunoglobulin Fc region (mFc); prot) KTLCSMEEAINERIQEVAGSLIFRAISSIGLECQSVTSRGDLATCPRGFAVTGCTCGSACGSWDVRAETTCHCQCAGMDWTGARCCRVQP
2 |  | binds | recombinant human resistin protein (ligand, UniProt Q9HD89 19-108, looked up, also called rhResistin; human recombinant resistin) KTLCSMEEAINERIQEVAGSLIFRAISSIGLECQSVTSRGDLATCPRGFAVTGCTCGSACGSWDVRAETTCHCQCAGMDWTGARCCRVQP
